Laboratory results taken from article PMC3423971 (Structure (London, England : 1993), 2012).

B1: wild-type SAGA deubiquitinating module (DUBm): Ubp8, Sgf11, Sus1, Sgf73(1-96) (complex, yeast)
chain 1: MSICPHIQQVFQNEKSKDGVLKTCNAARYILNHSVPKEKFLNTMKCGTCHEINSGATFMCLQCGFCGCWNHSHFLSHSKQIGHIFGINSNNGLLFCFKCEDYIGNIDLINDAILAKYWDDVCTKTMVPSMERRDGLSGLINMGSTCFMSSILQCLIHNPYFIRHSMSQIHSNNCKVRSPDKCFSCALDKIVHELYGALNTKQASSSSTSTNRQTGFIYLLTCAWKINQNLAGYSQQDAHEFWQFIINQIHQSYVLDLPNAKEVSRANNKQCECIVHTVFEGSLESSIVCPGCQNNSKTTIDPFLDLSLDIKDKKKLYECLDSFHKKEQLKDFNYHCGECNSTQDAIKQLGIHKLPSVLVLQLKRFEHLLNGSNRKLDDFIEFPTYLNMKNYCSTKEKDKHSENGKVPDIIYELIGIVSHKGTVNEGHYIAFCKISGGQWFKFNDSMVSSISQEEVLKEQAYLLFYTIRQVN
chain 2: MTEETITIDSISNGILNNLLTTLIQDIVARETTQQQLLKTRYPDLRSYYFDPNGSLDINGLQKQQESSQYIHCENCGRDVSANRLAAHLQRCLSRGARR
chain 3: MTMDTAQLKSQIQQYLVESGNYELISNELKARLLQEGWVDKVKDLTKSEMNINESTNFTQILSTVEPKALEMVSDSTRETVLKQIREFLEEIVDTQ
chain 4: MRSGDAEIKGIKPKVIEEYSLSQGSGPSNDSWKSLMSSAKDTPLQYDHMNRESLKKYFNPNAQLIEDPLDKPIQYRVCEKCGKPLALTAIVDHLEN
B2: DUBm-ΔSgf11-ZnF-Ubp8^WT: Ubp8, Sgf11(1-72), Sus1, Sgf73(1-96) (complex, yeast)
chain 1: MSICPHIQQVFQNEKSKDGVLKTCNAARYILNHSVPKEKFLNTMKCGTCHEINSGATFMCLQCGFCGCWNHSHFLSHSKQIGHIFGINSNNGLLFCFKCEDYIGNIDLINDAILAKYWDDVCTKTMVPSMERRDGLSGLINMGSTCFMSSILQCLIHNPYFIRHSMSQIHSNNCKVRSPDKCFSCALDKIVHELYGALNTKQASSSSTSTNRQTGFIYLLTCAWKINQNLAGYSQQDAHEFWQFIINQIHQSYVLDLPNAKEVSRANNKQCECIVHTVFEGSLESSIVCPGCQNNSKTTIDPFLDLSLDIKDKKKLYECLDSFHKKEQLKDFNYHCGECNSTQDAIKQLGIHKLPSVLVLQLKRFEHLLNGSNRKLDDFIEFPTYLNMKNYCSTKEKDKHSENGKVPDIIYELIGIVSHKGTVNEGHYIAFCKISGGQWFKFNDSMVSSISQEEVLKEQAYLLFYTIRQVN
chain 2: MTEETITIDSISNGILNNLLTTLIQDIVARETTQQQLLKTRYPDLRSYYFDPNGSLDINGLQKQQESSQYIH
chain 3: MTMDTAQLKSQIQQYLVESGNYELISNELKARLLQEGWVDKVKDLTKSEMNINESTNFTQILSTVEPKALEMVSDSTRETVLKQIREFLEEIVDTQ
chain 4: MRSGDAEIKGIKPKVIEEYSLSQGSGPSNDSWKSLMSSAKDTPLQYDHMNRESLKKYFNPNAQLIEDPLDKPIQYRVCEKCGKPLALTAIVDHLEN
B3: DUBm-ΔSgf11-ZnF-Ubp8^S144N: Ubp8 S144N, Sgf11(1-72), Sus1, Sgf73(1-96) (complex, yeast)
chain 1: MSICPHIQQVFQNEKSKDGVLKTCNAARYILNHSVPKEKFLNTMKCGTCHEINSGATFMCLQCGFCGCWNHSHFLSHSKQIGHIFGINSNNGLLFCFKCEDYIGNIDLINDAILAKYWDDVCTKTMVPSMERRDGLSGLINMGNTCFMSSILQCLIHNPYFIRHSMSQIHSNNCKVRSPDKCFSCALDKIVHELYGALNTKQASSSSTSTNRQTGFIYLLTCAWKINQNLAGYSQQDAHEFWQFIINQIHQSYVLDLPNAKEVSRANNKQCECIVHTVFEGSLESSIVCPGCQNNSKTTIDPFLDLSLDIKDKKKLYECLDSFHKKEQLKDFNYHCGECNSTQDAIKQLGIHKLPSVLVLQLKRFEHLLNGSNRKLDDFIEFPTYLNMKNYCSTKEKDKHSENGKVPDIIYELIGIVSHKGTVNEGHYIAFCKISGGQWFKFNDSMVSSISQEEVLKEQAYLLFYTIRQVN
chain 2: MTEETITIDSISNGILNNLLTTLIQDIVARETTQQQLLKTRYPDLRSYYFDPNGSLDINGLQKQQESSQYIH
chain 3: MTMDTAQLKSQIQQYLVESGNYELISNELKARLLQEGWVDKVKDLTKSEMNINESTNFTQILSTVEPKALEMVSDSTRETVLKQIREFLEEIVDTQ
chain 4: MRSGDAEIKGIKPKVIEEYSLSQGSGPSNDSWKSLMSSAKDTPLQYDHMNRESLKKYFNPNAQLIEDPLDKPIQYRVCEKCGKPLALTAIVDHLEN
B4: DUBm-ΔSgf11-ZnF-Ubp8^S149N: Ubp8 S149N, Sgf11(1-72), Sus1, Sgf73(1-96) (complex, yeast)
chain 1: MSICPHIQQVFQNEKSKDGVLKTCNAARYILNHSVPKEKFLNTMKCGTCHEINSGATFMCLQCGFCGCWNHSHFLSHSKQIGHIFGINSNNGLLFCFKCEDYIGNIDLINDAILAKYWDDVCTKTMVPSMERRDGLSGLINMGSTCFMNSILQCLIHNPYFIRHSMSQIHSNNCKVRSPDKCFSCALDKIVHELYGALNTKQASSSSTSTNRQTGFIYLLTCAWKINQNLAGYSQQDAHEFWQFIINQIHQSYVLDLPNAKEVSRANNKQCECIVHTVFEGSLESSIVCPGCQNNSKTTIDPFLDLSLDIKDKKKLYECLDSFHKKEQLKDFNYHCGECNSTQDAIKQLGIHKLPSVLVLQLKRFEHLLNGSNRKLDDFIEFPTYLNMKNYCSTKEKDKHSENGKVPDIIYELIGIVSHKGTVNEGHYIAFCKISGGQWFKFNDSMVSSISQEEVLKEQAYLLFYTIRQVN
chain 2: MTEETITIDSISNGILNNLLTTLIQDIVARETTQQQLLKTRYPDLRSYYFDPNGSLDINGLQKQQESSQYIH
chain 3: MTMDTAQLKSQIQQYLVESGNYELISNELKARLLQEGWVDKVKDLTKSEMNINESTNFTQILSTVEPKALEMVSDSTRETVLKQIREFLEEIVDTQ
chain 4: MRSGDAEIKGIKPKVIEEYSLSQGSGPSNDSWKSLMSSAKDTPLQYDHMNRESLKKYFNPNAQLIEDPLDKPIQYRVCEKCGKPLALTAIVDHLEN
B5: DUBm-ΔSgf11-ZnF-Ubp8^S144N/S149N: Ubp8 S144N S149N, Sgf11(1-72), Sus1, Sgf73(1-96) (complex, yeast)
chain 1: MSICPHIQQVFQNEKSKDGVLKTCNAARYILNHSVPKEKFLNTMKCGTCHEINSGATFMCLQCGFCGCWNHSHFLSHSKQIGHIFGINSNNGLLFCFKCEDYIGNIDLINDAILAKYWDDVCTKTMVPSMERRDGLSGLINMGNTCFMNSILQCLIHNPYFIRHSMSQIHSNNCKVRSPDKCFSCALDKIVHELYGALNTKQASSSSTSTNRQTGFIYLLTCAWKINQNLAGYSQQDAHEFWQFIINQIHQSYVLDLPNAKEVSRANNKQCECIVHTVFEGSLESSIVCPGCQNNSKTTIDPFLDLSLDIKDKKKLYECLDSFHKKEQLKDFNYHCGECNSTQDAIKQLGIHKLPSVLVLQLKRFEHLLNGSNRKLDDFIEFPTYLNMKNYCSTKEKDKHSENGKVPDIIYELIGIVSHKGTVNEGHYIAFCKISGGQWFKFNDSMVSSISQEEVLKEQAYLLFYTIRQVN
chain 2: MTEETITIDSISNGILNNLLTTLIQDIVARETTQQQLLKTRYPDLRSYYFDPNGSLDINGLQKQQESSQYIH
chain 3: MTMDTAQLKSQIQQYLVESGNYELISNELKARLLQEGWVDKVKDLTKSEMNINESTNFTQILSTVEPKALEMVSDSTRETVLKQIREFLEEIVDTQ
chain 4: MRSGDAEIKGIKPKVIEEYSLSQGSGPSNDSWKSLMSSAKDTPLQYDHMNRESLKKYFNPNAQLIEDPLDKPIQYRVCEKCGKPLALTAIVDHLEN
B6: Ubp8 (wild type) (enzyme, yeast)
chain: MSICPHIQQVFQNEKSKDGVLKTCNAARYILNHSVPKEKFLNTMKCGTCHEINSGATFMCLQCGFCGCWNHSHFLSHSKQIGHIFGINSNNGLLFCFKCEDYIGNIDLINDAILAKYWDDVCTKTMVPSMERRDGLSGLINMGSTCFMSSILQCLIHNPYFIRHSMSQIHSNNCKVRSPDKCFSCALDKIVHELYGALNTKQASSSSTSTNRQTGFIYLLTCAWKINQNLAGYSQQDAHEFWQFIINQIHQSYVLDLPNAKEVSRANNKQCECIVHTVFEGSLESSIVCPGCQNNSKTTIDPFLDLSLDIKDKKKLYECLDSFHKKEQLKDFNYHCGECNSTQDAIKQLGIHKLPSVLVLQLKRFEHLLNGSNRKLDDFIEFPTYLNMKNYCSTKEKDKHSENGKVPDIIYELIGIVSHKGTVNEGHYIAFCKISGGQWFKFNDSMVSSISQEEVLKEQAYLLFYTIRQVN
B7: Ubp8 S144N (enzyme, yeast)
chain: MSICPHIQQVFQNEKSKDGVLKTCNAARYILNHSVPKEKFLNTMKCGTCHEINSGATFMCLQCGFCGCWNHSHFLSHSKQIGHIFGINSNNGLLFCFKCEDYIGNIDLINDAILAKYWDDVCTKTMVPSMERRDGLSGLINMGNTCFMSSILQCLIHNPYFIRHSMSQIHSNNCKVRSPDKCFSCALDKIVHELYGALNTKQASSSSTSTNRQTGFIYLLTCAWKINQNLAGYSQQDAHEFWQFIINQIHQSYVLDLPNAKEVSRANNKQCECIVHTVFEGSLESSIVCPGCQNNSKTTIDPFLDLSLDIKDKKKLYECLDSFHKKEQLKDFNYHCGECNSTQDAIKQLGIHKLPSVLVLQLKRFEHLLNGSNRKLDDFIEFPTYLNMKNYCSTKEKDKHSENGKVPDIIYELIGIVSHKGTVNEGHYIAFCKISGGQWFKFNDSMVSSISQEEVLKEQAYLLFYTIRQVN

How the values were obtained:
ubiquitin-AMC = ubiquitin-AMC (UniProt P0CG48 1-76, AMC (ubiquitin-AMC)); experiment: cell-based or functional assay
AUC [1] = biological target: the molecule itself; experiment: AUC
AUC [2] = biological target: the molecule itself; experiment: AUC; remark: listed apart in the source
crystal structure = biological target: the molecule itself; experiment: crystal structure

Row | Binder | KM of Ub-AMC cleavage (steady-state kinetics, 30°C) (ubiquitin-AMC) | Kd (AUC [1]) | stoichiometry N (AUC [2]) | binding result (crystal structure)
1 | B1 | 24 µM | – | – | –
2 | B2 | 19 µM | ~17 µM | 2 | –
3 | B3 | 17 µM | 28 µM | 2 | –
4 | B4 | 11 µM | – | – | –
5 | B5 | 13 µM | – | – | –
6 | B6 | – | – | – | binds
7 | B7 | – | – | – | binds
